Among the data in article PMC4889325 are Kd and stoichiometry N (receptors per Hb tetramer) values, retold here.

This test concerns the target human haemoglobin (human). Briefly: ITC; MicroCal iTC200; 250 μM TcHpHbR titrated into 18 μM Hb, 20 injections of 2 μl; 20 mM HEPES pH 7.5, 150 mM NaCl, 25°C. (ITC needs no label: the signal is the heat of the interaction.)

As usually defined, the Kd is a measure of binding affinity in units of concentration. Lower therefore signals tighter binding.

Substance “T. congolense haptoglobin-haemoglobin receptor (TcHpHbR), recombinant, as used in gel filtration and ITC” registered a Kd of 3 nM and a stoichiometry N (receptors per Hb tetramer) of 2.
